Measured values taken from the Human Domainome abundance scans (Beltran et al. 2025).
± gives the uncertainty stated by the source.

B1: Nanos homolog 2, residues 63 to 115; numbered along this chain, P60321 (parent)
chain: CNFCKHNGESRHVYSSHQLKTPDGVVVCPILRHYVCPVCGATGDQAHTLKYCP

Variants of: B1
Test: abundance fitness (aPCA) (normalised: wild type 0, dead -1); higher = more abundant; growth selection in yeast, the domain comes from the species named
Settings: Homo sapiens
In the case of C4Y, the abundance fitness is reported as -0.874 ± 0.16. In the case of C4V, the abundance fitness is reported as -0.952 ± 0.088. In the case of H17E, the abundance fitness is reported as -0.512 ± 0.14. With H17V the abundance fitness was -0.769 ± 0.071. In the case of H17L, the abundance fitness is reported as -0.756 ± 0.093. H17Q gave an abundance fitness of -0.452 ± 0.083. H17N showed an abundance fitness of -0.711 ± 0.23. Variant H17T has an abundance fitness of -0.442 ± 0.082. For H17G, the abundance fitness was -0.618 ± 0.073. In the case of H17W, the abundance fitness is reported as -1.14 ± 0.21. Variant H17I has an abundance fitness of -0.719 ± 0.25. Variant H17C has an abundance fitness of -0.737 ± 0.16. Variant H17R has an abundance fitness of -0.644 ± 0.082. With H17P the abundance fitness was -0.828 ± 0.27. For H17S, the abundance fitness was -0.674 ± 0.1. Work on H17K yielded an abundance fitness of -0.6 ± 0.15. Variant H17A has an abundance fitness of -0.626 ± 0.13. Work on H17F yielded an abundance fitness of -0.86 ± 0.37. With V25M the abundance fitness was -0.051 ± 0.12. With V25K the abundance fitness was 0.085 ± 0.083. In the case of V25H, the abundance fitness is reported as -0.489 ± 0.18. Variant V25C has an abundance fitness of -0.001 ± 0.089. For V25L, the abundance fitness was 0.074 ± 0.095. Work on V25R yielded an abundance fitness of 0.019 ± 0.086. For V25I, the abundance fitness was 0.03 ± 0.096. With V25E the abundance fitness was 0.015 ± 0.067. Work on V25Q yielded an abundance fitness of -0.05 ± 0.075. With V25N the abundance fitness was 0.08 ± 0.097. With V25S the abundance fitness was -0.046 ± 0.092. Work on V25F yielded an abundance fitness of 0.166 ± 0.17. V25D gave an abundance fitness of -0.148 ± 0.1. In the case of K20T, the abundance fitness is reported as -0.118 ± 0.1. In the case of K20D, the abundance fitness is reported as -0.118 ± 0.18. K20M gave an abundance fitness of -0.368 ± 0.12. For K20L, the abundance fitness was -0.289 ± 0.069. With K20A the abundance fitness was -0.111 ± 0.057. With K20Y the abundance fitness was -0.455 ± 0.14. For K20N, the abundance fitness was -0.388 ± 0.16. With K20C the abundance fitness was -0.071 ± 0.089. K20P showed an abundance fitness of -0.561 ± 0.097. K20W showed an abundance fitness of -0.569 ± 0.11. For K20Q, the abundance fitness was -0.47 ± 0.16. K20V showed an abundance fitness of -0.204 ± 0.06. With K20E the abundance fitness was -0.47 ± 0.2. Variant K20H has an abundance fitness of -0.101 ± 0.077. K20S showed an abundance fitness of -0.168 ± 0.081. With K20F the abundance fitness was -0.336 ± 0.14. Work on K20G yielded an abundance fitness of -0.523 ± 0.12. K5F gave an abundance fitness of -0.305 ± 0.11. K5D gave an abundance fitness of -0.401 ± 0.097. In the case of K5C, the abundance fitness is reported as -0.249 ± 0.081. K5Y showed an abundance fitness of -0.145 ± 0.08. K5E showed an abundance fitness of -0.24 ± 0.083. With K5L the abundance fitness was -0.144 ± 0.046. K5S showed an abundance fitness of -0.313 ± 0.048. K5T gave an abundance fitness of -0.456 ± 0.097. Work on K5G yielded an abundance fitness of -0.699 ± 0.05. With K5W the abundance fitness was -0.4 ± 0.054. Work on K5N yielded an abundance fitness of -0.541 ± 0.12. K5Q showed an abundance fitness of -0.281 ± 0.11. Variant K5M has an abundance fitness of -0.165 ± 0.064. Work on K5A yielded an abundance fitness of -0.245 ± 0.057. Work on K5P yielded an abundance fitness of -0.691 ± 0.048. K5H showed an abundance fitness of -0.3 ± 0.12. K5I showed an abundance fitness of -0.054 ± 0.11. In the case of G24V, the abundance fitness is reported as -0.882 ± 0.081. With G24P the abundance fitness was -0.478 ± 0.16. With G24M the abundance fitness was -0.461 ± 0.14. With G24Y the abundance fitness was -0.895 ± 0.25. For G24L, the abundance fitness was -0.527 ± 0.064. In the case of G24D, the abundance fitness is reported as -0.108 ± 0.065. G24T gave an abundance fitness of -0.563 ± 0.13. In the case of G24F, the abundance fitness is reported as -1.02 ± 0.26. Work on G24E yielded an abundance fitness of -0.115 ± 0.079. Work on G24H yielded an abundance fitness of -0.381 ± 0.18. G24S showed an abundance fitness of -0.311 ± 0.092. G24N showed an abundance fitness of 0.113 ± 0.21. With G24K the abundance fitness was -0.353 ± 0.094. G24Q showed an abundance fitness of -0.152 ± 0.064. With G24C the abundance fitness was -0.496 ± 0.19. In the case of G24W, the abundance fitness is reported as -1.12 ± 0.27. Variant G24R has an abundance fitness of -0.413 ± 0.092. With G24I the abundance fitness was -0.983 ± 0.47.
